# Results from publication PMC3706316, “Transcription Factor Ets1 Cooperates with Estrogen Receptor α to Stimulate Estradiol-Dependent Growth in Breast Cancer Cells and Tumors” (PLoS ONE, 2013).
# T1: GST-Ets1 fusion protein (UniProt P14921 1-441)
# T1 construct: Transcription factor Ets1 fused to GST; the only Ets1 cDNA it names is human ETS1 (pSG5-hEts1); also called purified GST-Ets1 fusion; source: recombinant fusion protein, prepared using glutathione-sepharose resin as previously described [40]; held on the resin
# T1 sequence (looked up): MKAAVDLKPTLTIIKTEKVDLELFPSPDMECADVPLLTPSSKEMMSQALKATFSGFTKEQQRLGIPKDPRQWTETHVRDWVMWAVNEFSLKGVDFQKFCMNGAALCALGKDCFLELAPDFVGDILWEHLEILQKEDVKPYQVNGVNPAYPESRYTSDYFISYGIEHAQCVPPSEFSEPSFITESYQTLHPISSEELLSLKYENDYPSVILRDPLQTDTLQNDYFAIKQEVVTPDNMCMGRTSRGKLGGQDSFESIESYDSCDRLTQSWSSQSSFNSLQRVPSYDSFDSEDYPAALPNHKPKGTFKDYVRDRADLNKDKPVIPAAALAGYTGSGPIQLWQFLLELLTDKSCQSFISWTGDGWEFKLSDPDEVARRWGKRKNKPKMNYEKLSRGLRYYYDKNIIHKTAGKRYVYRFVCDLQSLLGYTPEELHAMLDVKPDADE
# B1: nuclear receptor coactivator NCOA1 (SRC1), GreenLys-labeled (natural protein)
# chain: not shown
# modifications: Fluorotect GreenLys-labeled (fluorescent lysines built in during translation)
# notes: plasmid PCR3.1 SRC1/NCOA1 from O'Malley and Smith; source: in vitro translated (TNT coupled transcription-translation reticulocyte lysate, T7 polymerase) from PCR3.1 SRC1/NCOA1
# B2: nuclear receptor coactivator NCOA2 (SRC2), GreenLys-labeled (natural protein)
# chain: not shown
# modifications: Fluorotect GreenLys-labeled (fluorescent lysines built in during translation)
# notes: plasmid PCR3.1 SRC2/NCOA2 from O'Malley and Smith; source: in vitro translated (TNT coupled transcription-translation reticulocyte lysate, T7 polymerase) from PCR3.1 SRC2/NCOA2
# B3: nuclear receptor coactivator NCOA3 (AIB/SRC3), GreenLys-labeled (natural protein)
# chain: not shown
# modifications: Fluorotect GreenLys-labeled (fluorescent lysines built in during translation)
# notes: plasmid PCR3.1 SRC3/NCOA3 from O'Malley and Smith; source: in vitro translated (TNT coupled transcription-translation reticulocyte lysate, T7 polymerase) from PCR3.1 SRC3/NCOA3
# B4: estrogen receptor α (ERα), GreenLys-labeled (receptor, human, UniProt P03372 1-595, looked up)
# chain: MTMTLHTKASGMALLHQIQGNELEPLNRPQLKIPLERPLGEVYLDSSKPAVYNYPEGAAYEFNAAAAANAQVYGQTGLPYGPGSEAAAFGSNGLGGFPPLNSVSPSPLMLLHPPPQLSPFLQPHGQQVPYYLENEPSGYTVREAGPPAFYRPNSDNRRQGGRERLASTNDKGSMAMESAKETRYCAVCNDYASGYHYGVWSCEGCKAFFKRSIQGHNDYMCPATNQCTIDKNRRKSCQACRLRKCYEVGMMKGGIRKDRRGGRMLKHKRQRDDGEGRGEVGSAGDMRAANLWPSPLMIKRSKKNSLALSLTADQMVSALLDAEPPILYSEYDPTRPFSEASMMGLLTNLADRELVHMINWAKRVPGFVDLTLHDQVHLLECAWLEILMIGLVWRSMEHPGKLLFAPNLLLDRNQGKCVEGMVEIFDMLLATSSRFRMMNLQGEEFVCLKSIILLNSGVYTFLSSTLKSLEEKDHIHRVLDKITDTLIHLMAKAGLTLQQQHQRLAQLLLILSHIRHMSNKGMEHLYSMKCKNVVPLYDLLLEMLDAHRLHAPTSRGGASVEETDQSHLATAGSTSSHSLQKYYITGEAEGFPATV
# modifications: Fluorotect GreenLys-labeled (fluorescent lysines built in during translation)
# notes: also called hERα; fluorescently labeled ERα; source: in vitro translated (TNT coupled transcription-translation reticulocyte lysate, T7 polymerase) from pcDNA3.1 ERα
# Biological target: T1, GST-Ets1 fusion protein
# Experiment: pull-down; GST or GST-Ets1 (4 µg/20 µL glutathione-sepharose resin) in 0.5 mL binding buffer (40 mM HEPES pH 7.5, 100 mM NaCl, 5 mM MgCl2, 0.1 mM EDTA, 0.05% Nonidet P-40, 1 mM DTT); GreenLys-labeled ERα (5 µL) 30 min at 4°C, labeled NCOA (5 µL) a further 2 h, alone or in combination; washed 3 times with 0.1% Triton X-100; SDS-PAGE, fluorescence imaging, percent of input bound
# Conditions: one partner purified
row,Binder,percent of labeled input bound
1,B1,27%
2,B2,9%
3,B3,26%
4,B4,10%
